In patent US8192734B2, “Compositions and methods for bone strengthening” (Cornell University, priority 2007, dated 2012):
Where two headings read alike, the source gives them in different places.

What was measured:
[1] = system: pigs fed P-adequate corn-soybean meal basal diet; assay: Expt 2: femur geometrical and strength properties; format: in vivo, pig
Method: A three-point bending test was conducted on the dissected bones to generate load-deformation curves with an Instron Model 5566 (Norwood, Mass.). Mechanical properties of bones were calculated using formula as previously described^(29). Bone cross sections were cut at the mid-point of loading and used to determine area moment of inertia. Cross sections were submersed for 5 min in a 0.4 mol/L sodium hypochlorite solution to remove periosteum and marrow tissue, and then embedded in blue clay (Play-Doh, Hasbro, Pawtucket, R.I.) to prevent depth-of-field distortions and to enhance contrasts. The embedded sections were scanned with a flat-bed scanner (Epson Perfection Model 3490, Long Beach, Calif.) and analyzed using Image J software (30) to measure the x-y coordinates of bone pixels.

[2] = Expt 2, plasma, phytase 2000 U/kg and/or Sr 50 mg/kg
Method: Pigs were penned in an environmentally controlled barn (20-25° C.; 12 h light: 12 h dark cycle), and were allowed free access to feed and water.
Blood samples of individual pigs were collected at initial (wk 0) and then weekly from the anterior vena cava into heparinized tubes after an overnight fast (8 h). The collected whole blood samples were chilled on ice and centrifuged at 3,000×g (GS-6KR centrifuge, Beckman Instruments Inc.) for 10 min at 4° C. to prepare plasma for assays of inorganic P concentrations and alkaline phosphatase activity.
The hydrolysis of p-nitrophenol phosphate to p-nitrophenol was used to measure plasma alkaline phosphatase activity^(27). The enzyme unit was defined as 1 μmol of p-nitrophenol released per minute at 30° C.

[3] = system: pigs fed P-adequate corn-soybean meal basal diet; assay: Expt 1: metatarsal breaking strength, three-point bending test; format: in vivo, pig; conditions: BD + phytase 2,000 U/kg, 6 wk
Method: Based on results of the preliminary trials, Experiment 1 was conducted with 24 gilts (6-wk old, 8.6±0.1 kg body weight) to test the possible benefit of phytase to metatarsal breaking load of pigs fed the corn-soybean meal basal diet (BD, Table 1). The BD contained 0.33% available P and adequate concentrations of all other required nutrients (24). The selected pigs were divided into two groups (n=12), and were fed BD or BD+phytase at 2,000 U/kg for 6 wk.
Third and 4th metatarsals in both experiments and femur (right leg) in Experiment 2 were prepared by manually removing surrounding skin, muscle and other tissues. Bones were stored in closed plastic bags at 4° C. until strength analysis. Maximal breaking load was measured using an Instron 4500 Machine (Canton, Mass.) at room temperature (23° C.) by subjecting each bone to a three-point bending test^(28). During mechanical tests, force was applied to the center of the bone held by supports 2.0 cm apart for metatarsals and 3.3 cm apart for femur. The crosshead speed was set at 50 mm/min and the sample rate was 10 points/s. Final strength was determined from load-displacement curves indicating the maximum loads. The metatarsal breaking strength was expressed as the mean strength of four bones from both left and right feet of pigs in Experiment 1, and as the mean of the two bones from the right foot of pigs in Experiment 2. […]

[4] = system: pigs fed P-adequate corn-soybean meal basal diet; assay: Expt 2: metatarsal and femur mineral concentrations (ICP); format: in vivo, pig
Method: After the breaking strength analysis, samples (˜100 to 200 mg) of metatarsals in both experiments and femur in Experiment 2 from the right legs were used for mineral analysis. Cortical bones were isolated after removing attached connective tissue using a stainless steel scalpel and collecting individual shards using needle-nosed pliers with plastic-covered clamps. […] Concentrations of individual elements in the dried bone samples were measured using inductively coupled argon plasma spectrophotometer (ICAP 61E Trace Analyzer, Thermo Jarell Ash corporation, Franklin, Mass.)(31). Samples were digested in a mixture of HNO3 and HClO4 (9:1, vol/vol), and then diluted in 5% HNO3 before analysis.

[5] = phytase 2000 U/kg and/or Sr 50 mg/kg, n=6

B1: Phytase: Escherichia coli AppA2 phytase (OptiPhos, JBS United, Inc.), added to diets at feed mixing; AppA2 is SEQ ID NO: 2 (protein, listed as Escherichia coli)
chain: MKAILIPFLSLLIPLTPQSAFAQSEPELKLESVVIVSRHGVRAPTKATQLMQDVTPDAWPTWPVKLGWLTPRGGELIAYLGHYQRQRLVADGLLAKKGCPQPGQVAIIADVDERTRKTGEAFAAGLAPDCAITVHTQADTSSPDPLFNPLKTGVCQLDNANVTDAILSRAGGSIADFTGHRQTAFRELERVLNFSQLNLCLNREKQDESCSLTQALPSELKVSADNVSLTGAVSLASMLTEIFLLQQAQGMPEPGWGRITDSHQWNTLLSLHNAQFYLLQRTPEVARSRATPLLDLIMAALTPHPPQKQAYGVTLPTSVLFIAGHDTNLANLGGALELNWTLPGQPDNTPPGGELVFERWRRLSDNSQWIQVSLVFQTLQQMRDKTPLSLNTPPGEVKLTLAGCEERNAQGMCSLAGFTQIVNEARIPACSL
enhancement of yield bending moment of femur ([1]; P<0.05): 19%
larger cross-sectional area of femur vs diets without phytase ([1]; P=0.06): 11%
femur Cross-sectional area [1, 5]: 165 mm^2
femur Cross-sectional radius [1, 5]: 9.0 mm
femur Maximum bending moment [1, 5]: 2263 kg × mm
femur Maximum stress [1, 5]: 4.0 kg/mm^2
femur Modulus of elasticity [1, 5]: 49 kg/mm^2
femur Moment of inertia [1, 5]: 5419 mm^4
femur Strain [1, 5]: 0.06
femur Yield bending moment [1, 5]: 1507 kg-mm
femur Yield stress [1, 5]: 2.7 kg/mm^2
Alkaline phosphatase activity ([2]; week 0 (initial)): 202.1 U/L
Alkaline phosphatase activity ([2]; week 5 (final)): 149.9 U/L
breaking strength of metatarsals [3]: 112.0 ± 3.9 kg
greater breaking strength of metatarsals vs BD ([3]; P<0.02): 12%
elevation of metatarsal concentration of Sr ([4]; main effect of phytase 2,000 U/kg, P<0.07): 11%
femur Ca concentration [4, 5]: 300.3 g/kg
femur Cr concentration [4, 5]: 7.2 mg/kg
femur Fe concentration [4, 5]: 7.2 mg/kg
femur Mg concentration [4, 5]: 5.3 g/kg
femur Mn concentration [4, 5]: 0.8 mg/kg
femur Na concentration [4, 5]: 8.3 g/kg
femur P concentration [4, 5]: 178.6 g/kg
femur S concentration [4, 5]: 1.0 g/kg
femur Sr concentration [4, 5]: 94.3 mg/kg
femur Zn concentration [4, 5]: 220.1 mg/kg
metatarsal Ca concentration [4, 5]: 187.4 g/kg
metatarsal Cr concentration [4, 5]: 20.5 mg/kg
metatarsal Fe concentration [4, 5]: 15.3 mg/kg
metatarsal Mg concentration [4, 5]: 3.5 g/kg
metatarsal Mn concentration [4, 5]: 2.0 mg/kg
metatarsal Na concentration [4, 5]: 7.4 g/kg
metatarsal P concentration [4, 5]: 91.8 g/kg
metatarsal S concentration [4, 5]: 0.9 g/kg
metatarsal Sr concentration [4, 5]: 73.5 mg/kg
metatarsal Zn concentration [4, 5]: 152.3 mg/kg
